1 substance from patent publication US5786168 can be followed below.

The target of assay [1] is recombinant human GIF secreted by COS-1 cells co-transfected with SRα-hcGIF and SRα-hfurin (human). Nature of the assay: fractionation of concentrated COS-1 supernatant on 388F1-Sepharose; GIF bioassay.
For assay [2], the target named is human antigen non-specific glycosylation inhibiting factor (GIF), hybridoma-derived (human). The experiment in a line: ELISA of the flow-through fraction from 110BH3-Sepharose.
Assay [3] has the same target. The experiment in a line: ELISA, culture supernatant on wells coated with affinity-purified GIF from CL3.
Assay [4] addresses bovine serum albumin (BSA) (bovine) (UniProt P02769). Nature of the assay: ELISA, nonspecific binding of Ig in the same supernatant to BSA-coated wells. (ELISA stands for enzyme-linked immunosorbent assay.)
The target in assay [5] is PLA2-binding GIF from anti-CD3-treated AC5 cells (human). The experiment in a line: ELISA of the acid eluate fraction from 110BH3-Sepharose.

A value given as a limit tells only on which side of the number the result lay.

As for “monoclonal anti-human GIF antibody 388F1 (ATCC HB 10472)”, the GIF activity recovered in the acid eluate fraction in assay [1] was over 75%. For the same substance, the ELISA signal (absorption at 490 nm) in assay [2] came to 0.36 absorbance; in assay [5], 0.86 absorbance. The ELISA signal (optical density at 410 mµ) in assay [3] was 0.892 OD. The same substance showed an ELISA control (optical density at 410 mµ) in assay [4] of 0.1 OD.
